The source of these data is patent US12630600B2 (MEDIMMUNE LIMITED, priority 2022, dated 2026).

Starred links: 1 amine or outer side, 2 acyl side, 3 side chain; linkers in the order of their positions; H or OH if unused. Non-standard residues stand in square brackets, D forms with d. Groups on a side chain read outwards from the residue. No end group written: not given here. *: point of attachment. C20 diacid = O=C(O)CCCCCCCCCCCCCCCCCCC(=O)*; C18 diacid = O=C(O)CCCCCCCCCCCCCCCCC(=O)*; γGlu = O=C(O)[C@H](CCC(=O)[*:2])N[*:1]; αMeF = C[C@](N)(Cc1ccccc1)C(=O)O; AEEA = NCCOCCOCC(=O)O; Aib = CC(C)(N)C(=O)O

One experiment addresses human GLP-1 receptor (human, UniProt P43220). The experiment can be described thus: cell-based or functional assay.
The next experiment deals with human glucagon receptor (human, UniProt P47871). The experiment can be described thus: cell-based or functional assay.

B1: Peptide 441 (peptide)
peptide: H[Aib]QGTFTSDVSK[αMeF]LDKK([AEEA-AEEA-γGlu-C20 diacid])RAQDFVRWLL[Aib]E-NH2
modifications: N-terminus assumed
SMILES: CC(C)C[C@H](NC(=O)[C@H](Cc1c[nH]c2ccccc12)NC(=O)[C@H](CCCNC(=N)N)NC(=O)[C@@H](NC(=O)[C@H](Cc1ccccc1)NC(=O)[C@H](CC(=O)O)NC(=O)[C@H](CCC(N)=O)NC(=O)[C@H](C)NC(=O)[C@H](CCCNC(=N)N)NC(=O)[C@H](CCCCNC(=O)COCCOCCNC(=O)COCCOCCNC(=O)CC[C@H](NC(=O)CCCCCCCCCCCCCCCCCCC(=O)O)C(=O)O)NC(=O)[C@H](CCCCN)NC(=O)[C@H](CC(=O)O)NC(=O)[C@H](CC(C)C)NC(=O)[C@](C)(Cc1ccccc1)NC(=O)[C@H](CCCCN)NC(=O)[C@H](CO)NC(=O)[C@@H](NC(=O)[C@H](CC(=O)O)NC(=O)[C@H](CO)NC(=O)[C@@H](NC(=O)[C@H](Cc1ccccc1)NC(=O)[C@@H](NC(=O)CNC(=O)[C@H](CCC(N)=O)NC(=O)C(C)(C)NC(=O)[C@@H](N)Cc1c[nH]cn1)[C@@H](C)O)[C@@H](C)O)C(C)C)C(C)C)C(=O)N[C@@H](CC(C)C)C(=O)NC(C)(C)C(=O)N[C@@H](CCC(=O)O)C(N)=O
As to B1, the entries for the “cAMP production EC50” value with human GLP-1 receptor and in the experiment with human glucagon receptor were 0.0627 nM and 0.0728 nM, respectively.
As to H[Aib]QGTFTSDVSK[αMeF]LETK([AEEA-AEEA-γGlu-C18 diacid])RARDFVQWLLE[Aib]G-OH [Peptide 445], the “cAMP production EC50” value in the experiment with human GLP-1 receptor is 0.033 nM; with human glucagon receptor, 0.684 nM.

B2: Peptide 447 (peptide)
peptide: H[Aib]QGTFTSDVSK[αMeF]LDRK([AEEA-AEEA-γGlu-γGlu-C20 diacid])RAQDFVRWLV[Aib]E-NH2
modifications: N-terminus assumed
SMILES: CC(C)C[C@H](NC(=O)[C@H](Cc1c[nH]c2ccccc12)NC(=O)[C@H](CCCNC(=N)N)NC(=O)[C@@H](NC(=O)[C@H](Cc1ccccc1)NC(=O)[C@H](CC(=O)O)NC(=O)[C@H](CCC(N)=O)NC(=O)[C@H](C)NC(=O)[C@H](CCCNC(=N)N)NC(=O)[C@H](CCCCNC(=O)COCCOCCNC(=O)COCCOCCNC(=O)CC[C@H](NC(=O)CC[C@H](NC(=O)CCCCCCCCCCCCCCCCCCC(=O)O)C(=O)O)C(=O)O)NC(=O)[C@H](CCCNC(=N)N)NC(=O)[C@H](CC(=O)O)NC(=O)[C@H](CC(C)C)NC(=O)[C@](C)(Cc1ccccc1)NC(=O)[C@H](CCCCN)NC(=O)[C@H](CO)NC(=O)[C@@H](NC(=O)[C@H](CC(=O)O)NC(=O)[C@H](CO)NC(=O)[C@@H](NC(=O)[C@H](Cc1ccccc1)NC(=O)[C@@H](NC(=O)CNC(=O)[C@H](CCC(N)=O)NC(=O)C(C)(C)NC(=O)[C@@H](N)Cc1c[nH]cn1)[C@@H](C)O)[C@@H](C)O)C(C)C)C(C)C)C(=O)N[C@H](C(=O)NC(C)(C)C(=O)N[C@@H](CCC(=O)O)C(N)=O)C(C)C
Take B2: the “cAMP production EC50” value amounted to 0.17 nM with human GLP-1 receptor and 0.667 nM with human glucagon receptor.
The matching figures for H[Aib]QGTFTSDVSK[αMeF]LETK([AEEA-AEEA-γGlu-C18 diacid])RARDFVQWLLE[Aib]G-OH (not fully specified) [Peptide 444]: 0.247 nM and 1.76 nM.

B3: Peptide 443 (peptide)
peptide: H[Aib]QGTFTSDVSK[αMeF]LDKK([AEEA-AEEA-γGlu-C18 diacid])RARDFVRWLL[Aib]E-NH2
modifications: N-terminus assumed
SMILES: CC(C)C[C@H](NC(=O)[C@H](Cc1c[nH]c2ccccc12)NC(=O)[C@H](CCCNC(=N)N)NC(=O)[C@@H](NC(=O)[C@H](Cc1ccccc1)NC(=O)[C@H](CC(=O)O)NC(=O)[C@H](CCCNC(=N)N)NC(=O)[C@H](C)NC(=O)[C@H](CCCNC(=N)N)NC(=O)[C@H](CCCCNC(=O)COCCOCCNC(=O)COCCOCCNC(=O)CC[C@H](NC(=O)CCCCCCCCCCCCCCCCC(=O)O)C(=O)O)NC(=O)[C@H](CCCCN)NC(=O)[C@H](CC(=O)O)NC(=O)[C@H](CC(C)C)NC(=O)[C@](C)(Cc1ccccc1)NC(=O)[C@H](CCCCN)NC(=O)[C@H](CO)NC(=O)[C@@H](NC(=O)[C@H](CC(=O)O)NC(=O)[C@H](CO)NC(=O)[C@@H](NC(=O)[C@H](Cc1ccccc1)NC(=O)[C@@H](NC(=O)CNC(=O)[C@H](CCC(N)=O)NC(=O)C(C)(C)NC(=O)[C@@H](N)Cc1c[nH]cn1)[C@@H](C)O)[C@@H](C)O)C(C)C)C(C)C)C(=O)N[C@@H](CC(C)C)C(=O)NC(C)(C)C(=O)N[C@@H](CCC(=O)O)C(N)=O
With B3, the “cAMP production EC50” value came to 0.0206 nM with human GLP-1 receptor and 0.0224 nM with human glucagon receptor.

B4: Peptide 446 (peptide)
peptide: H[Aib]QGTFTSDVSK[αMeF]LDRK([AEEA-AEEA-γGlu-γGlu-C18 diacid])RAQDFVRWLV[Aib]E-NH2
modifications: N-terminus assumed
SMILES: CC(C)C[C@H](NC(=O)[C@H](Cc1c[nH]c2ccccc12)NC(=O)[C@H](CCCNC(=N)N)NC(=O)[C@@H](NC(=O)[C@H](Cc1ccccc1)NC(=O)[C@H](CC(=O)O)NC(=O)[C@H](CCC(N)=O)NC(=O)[C@H](C)NC(=O)[C@H](CCCNC(=N)N)NC(=O)[C@H](CCCCNC(=O)COCCOCCNC(=O)COCCOCCNC(=O)CC[C@H](NC(=O)CC[C@H](NC(=O)CCCCCCCCCCCCCCCCC(=O)O)C(=O)O)C(=O)O)NC(=O)[C@H](CCCNC(=N)N)NC(=O)[C@H](CC(=O)O)NC(=O)[C@H](CC(C)C)NC(=O)[C@](C)(Cc1ccccc1)NC(=O)[C@H](CCCCN)NC(=O)[C@H](CO)NC(=O)[C@@H](NC(=O)[C@H](CC(=O)O)NC(=O)[C@H](CO)NC(=O)[C@@H](NC(=O)[C@H](Cc1ccccc1)NC(=O)[C@@H](NC(=O)CNC(=O)[C@H](CCC(N)=O)NC(=O)C(C)(C)NC(=O)[C@@H](N)Cc1c[nH]cn1)[C@@H](C)O)[C@@H](C)O)C(C)C)C(C)C)C(=O)N[C@H](C(=O)NC(C)(C)C(=O)N[C@@H](CCC(=O)O)C(N)=O)C(C)C
For the molecule B4, the “cAMP production EC50” value turned out to be 0.0329 nM in the experiment with human GLP-1 receptor and 0.366 nM with human glucagon receptor.

B5: Peptide 442 (peptide)
peptide: H[Aib]QGTFTSDVSK[αMeF]LDKK([AEEA-AEEA-γGlu-C18 diacid])RAQDFVRWLLE[Aib]G-NH2
modifications: N-terminus assumed
SMILES: CC(C)C[C@H](NC(=O)[C@H](Cc1c[nH]c2ccccc12)NC(=O)[C@H](CCCNC(=N)N)NC(=O)[C@@H](NC(=O)[C@H](Cc1ccccc1)NC(=O)[C@H](CC(=O)O)NC(=O)[C@H](CCC(N)=O)NC(=O)[C@H](C)NC(=O)[C@H](CCCNC(=N)N)NC(=O)[C@H](CCCCNC(=O)COCCOCCNC(=O)COCCOCCNC(=O)CC[C@H](NC(=O)CCCCCCCCCCCCCCCCC(=O)O)C(=O)O)NC(=O)[C@H](CCCCN)NC(=O)[C@H](CC(=O)O)NC(=O)[C@H](CC(C)C)NC(=O)[C@](C)(Cc1ccccc1)NC(=O)[C@H](CCCCN)NC(=O)[C@H](CO)NC(=O)[C@@H](NC(=O)[C@H](CC(=O)O)NC(=O)[C@H](CO)NC(=O)[C@@H](NC(=O)[C@H](Cc1ccccc1)NC(=O)[C@@H](NC(=O)CNC(=O)[C@H](CCC(N)=O)NC(=O)C(C)(C)NC(=O)[C@@H](N)Cc1c[nH]cn1)[C@@H](C)O)[C@@H](C)O)C(C)C)C(C)C)C(=O)N[C@@H](CC(C)C)C(=O)N[C@@H](CCC(=O)O)C(=O)NC(C)(C)C(=O)NCC(N)=O
Turning to B5, the “cAMP production EC50” value with human GLP-1 receptor came to 0.0191 nM; with human glucagon receptor, 0.0358 nM.
